According to patent US10774143 (LA JOLLA INSTITUTE FOR ALLERGY AND IMMUNOLOGY, dated 2020):

Experiments:
[1] = target: SWAP-70-like adaptor of T cells (SLAT), endogenous mouse protein (mouse) (UniProt Q8C2K1); test: co-IP of SLAT and IP3R1 from CD4+ T cells pre-incubated with TAT protein, densitometry against control TAT-HA
[2] = target: SWAP-70-like adaptor of T cells (SLAT), endogenous mouse protein (mouse) (UniProt Q8C2K1); test: cell-based or functional assay
[3] = target: T1, Flag-tagged IP3R1-f2.1 (residues 346-490) (Homo sapiens (Human), UniProt Q14643 346-490); test: co-IP from Jurkat-TAg cells cotransfected with Flag-IP3R1-f2.1
T1 construct: not shown: Flag tag

Molecule | percent reduction of the SLAT-IP3R1 interaction [1] | anti-CD3/CD28-stimulated IFNγ production by CD4+ T cells (ELISA), reduction [2] | binding result [3]
TAT-HA-2.1 Δ18 fusion protein (TAT-HA fused to IP3R1 residues 346-490 deleted of residues 400-417) (from UniProt Q14643 346-490) | 20% | 15 to 20% | –
Myc-tagged SLAT putative EF-hand domain (other, not shown: Myc tag downstream of the insert (pEF-Myc-His A/C vector)) MALRKELLKSIWYAFTALDVEKSGKVSKSQLKVLSHNLYTVLHIPHDPVALEEHFRDDDDGPVSSQGYMPYL | – | – | binds
